Reference: patent US20160340743

Target: GSK-3 fusion protein (kinase substrate, Nonradioactive AKT Kinase Assay Kit, Cell signaling 9840)

B1: BCAM-AKT2-FLAG (cloned from patient S4, expressed in OVCAR8 cells) (protein)
chain: EVRLSVPPLVEVMRGKSVILDYTPTGTHDHYMLEWFLTDRSGARPRLASAEMQGSELQVTMHDTRGRSPPYQLDSQGRLVLAEAQVGDERDYVCVVRAGAAGTAEATARLNVFAKPEATEVSPNKGTLSVMEDSAQEIATCNSRNGNPAPKITWYRNGQRLEVPVEMNPEGYMTSRTVREASGLLSLTSTLYLRLRKDDRDASFHCAAHYSLPEGRHGRLDSPTFHLTLHYPTEHVQFWVGSPSTPAGWVREGDTVQLLCRGDGSPSPEYTLFRLQDEQEEVLNVNLEGYLTLEGVTRGQSGTYGCRVEDYDAADDVQLSKTLELRVAYLDPLELNEGKVLSLPLNSSAVVNCSVHGLPTPALRWTKDSTPLGDGPMLSLSSITFDSNGTYVCEASLPTVPVLSRTQNFTLLVQGSPGLKTAEIEPKADGSWREGDEVTLICSARGHPDPKLSWSQLGGSPAEPIPGRQGWVSSSLTLKVTSALSRDGISCEASNPHGNKRHVFHFGTVSPQTSQAGVAVMAVAVSVGLLLLVVAVFYCVRRKGGPCCRQRREKGAPEEWMRAIQMVANSLKQRAPGEDPMDYKCGSPSDSSTTEEMEVAVSKARAKVTMNDFDYLKLLGKGTFGKVILVREKATGRYYAMKILRKEVIIAKDEVAHTVTESRVLQNTRHPFLTALKYAFQTHDRLCFVMEYANGGELFFHLSRERVFTEERARFYGAEIVSALEYLHSRDVVYRDIKLENLMLDKDGHIKITDFGLCKEGISDGATMKTFCGTPEYLAPEVLEDNDYGRAVDWWGLGVVMYEMMCGRLPFYNQDHERLFELILMEEIRFPRTLSPEAKSLLAGLLKKDPKQRLGGGPSDAKEVMEHRFFLSINWQDVVQKKLLPPFKPQVTSEVDTRYFDDEFTAQSITITPPDRYDSLGLLELDQRTHFPQFSYSASIRE
  phosphorylation of GSK-3 (in vitro kinase assay, western blot with anti-phospho-GSK-3): incubation with immunoprecipitated BCAM-AKT2 led to efficient phosphorylation of GSK-3
